± gives the uncertainty stated by the source.
B1: Zinc finger homeobox protein 3, residues 2643 to 2698; numbered along this chain, Q15911 (parent)
chain: RLRTTITPEQLEILYQKYLLDSNPTRKMLDHIAHEVGLKKRVVQVWFQNTRARERK

Variants of: B1
Assay: abundance fitness (aPCA) (normalised: wild type 0, dead -1); higher = more abundant; growth selection in yeast, the domain comes from the species named
Conditions: Homo sapiens

First: N49E
Second: T5S
The abundance fitness of the first is higher: 0.406 ± 0.11 for the first, -0.25 ± 0.12 for the second.

V42N and Q44K are within error of each other in abundance fitness: -0.02 ± 0.14 for the first, -0.236 ± 0.12 for the second.

N23A and N23V are within error of each other in abundance fitness: -0.23 ± 0.13 for the first, -0.37 ± 0.098 for the second.

I13V and R1M are within error of each other in abundance fitness: 0.057 ± 0.088 for the first, 0.23 ± 0.35 for the second.

E12H and E12C are within error of each other in abundance fitness: -0.069 ± 0.16 for the first, -0.111 ± 0.11 for the second.

Going from Q10Y to L11I, the abundance fitness rises from -0.792 ± 0.084 to -0.224 ± 0.19.

Going from I6A to R26F, the abundance fitness rises from -0.298 ± 0.087 to 0.029 ± 0.1.

F47V and W46T are within error of each other in abundance fitness: -0.902 ± 0.14 for the first, -0.865 ± 0.22 for the second.

R51H and L29M are within error of each other in abundance fitness: 0.164 ± 0.19 for the first, 0.028 ± 0.12 for the second.

R3K and K39T are within error of each other in abundance fitness: 0.209 ± 0.11 for the first, 0.373 ± 0.11 for the second.

L20F and L20K are within error of each other in abundance fitness: -0.111 ± 0.13 for the first, -0.147 ± 0.12 for the second.

L20V showed an abundance fitness of 0.002 ± 0.094.

— the Human Domainome abundance scans (Beltran et al. 2025)
